Experimental data taken from paper PMC3648529 (PLoS ONE, 2013).

Target: T1, biotinylated human soluble TWEAK (human, UniProt O43508, biotin (site not stated))
T1 construct: TWEAK, human, soluble form; Captured on a streptavidin (SA) sensor by its biotin; also called biotinylated TWEAK ligand
Assay: SPR; Biacore 2000, SA sensor, biotinylated human soluble TWEAK coupled at 150 RU; antibody injected at 100 nM, 2 min association, 5 min dissociation at 25 C in HBS-ET (10 mM HEPES pH 7.4, 150 mM NaCl, 1 mM EDTA, 0.05% Tween 20); half-life from kd of the interval 240-300 s
Conditions: both partners purified

T1 sequence (O43508 94-249): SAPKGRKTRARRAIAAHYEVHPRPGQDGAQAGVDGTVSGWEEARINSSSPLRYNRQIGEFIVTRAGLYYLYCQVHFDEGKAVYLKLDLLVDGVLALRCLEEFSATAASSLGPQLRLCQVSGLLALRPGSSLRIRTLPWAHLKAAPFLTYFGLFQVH

B1: chi TW-305 (chimeric rabbit anti-TWEAK monoclonal antibody) (antibody, V domains shown)
VH: QEQLVESGGGLVQPGGSLTLSCKASGFDFSTYYMSWVRQAPGKGLEWIGTVYVRQGTTYYASWLNGRFTISSDNAQNTVDLKMNSLTAADTATYFCAKGGYNYDDAFVIWGPGTLVTVSF
VL: AIEMTQTPFSVSAAVGGTVTINCQASQNIYSNLAWYQQKPGQPPKLLMYTASYLASGVPSRFKGSGSRTEYTLTISGVQCADAATYYCQTAYYNSRPDTVAFGGGTEVVVK
notes: Fab part as the heavy chain of m5 (PDB 4HT1); as the light chain of m5 (PDB 4HT1); Whole antibody from which the Fab m5 was cut; source: produced by standard procedures
- t/2 diss (half-life of immunocomplex): 2.45 h
